# Source: US20200361992A1 (PROTAGONIST THERAPEUTICS, published 2020)
# Starred links: 1 amine or outer side, 2 acyl side, 3 side chain; linkers in the order of their positions; H or OH if unused. Positions of bridges follow the written chain, without caps; N, C: chain ends. Non-standard residues stand in square brackets, D forms with d. Groups on a side chain read outwards from the residue. *: point of attachment. PEG12 = NCCOCCOCCOCCOCCOCCOCCOCCOCCOCCOCCOCCOCCC(=O)O; Phe(3,4-F2) = N[C@@H](Cc1ccc(F)c(F)c1)C(=O)O; Dip = N[C@H](C(=O)O)C(c1ccccc1)c1ccccc1; γGlu = O=C(O)[C@H](CCC(=O)[*:2])N[*:1]; 2Nal = N[C@@H](Cc1ccc2ccccc2c1)C(=O)O; AEF = NCCOc1ccc(C[C@H](N)C(=O)O)cc1; Palmitoyl = CCCCCCCCCCCCCCCC(=O)*; β3hF = N[C@H](CC(=O)O)Cc1ccccc1; Isovaleryl = CC(C)CC(=O)*; Npc = nipecotic acid; βAla = NCCC(=O)O
# T1: human ferroportin (SLC40A1) fused in frame with the GFP protein, stably expressed in HEK293 cells (human, UniProt Q9NP59 1-571)
# T1 sequence (looked up): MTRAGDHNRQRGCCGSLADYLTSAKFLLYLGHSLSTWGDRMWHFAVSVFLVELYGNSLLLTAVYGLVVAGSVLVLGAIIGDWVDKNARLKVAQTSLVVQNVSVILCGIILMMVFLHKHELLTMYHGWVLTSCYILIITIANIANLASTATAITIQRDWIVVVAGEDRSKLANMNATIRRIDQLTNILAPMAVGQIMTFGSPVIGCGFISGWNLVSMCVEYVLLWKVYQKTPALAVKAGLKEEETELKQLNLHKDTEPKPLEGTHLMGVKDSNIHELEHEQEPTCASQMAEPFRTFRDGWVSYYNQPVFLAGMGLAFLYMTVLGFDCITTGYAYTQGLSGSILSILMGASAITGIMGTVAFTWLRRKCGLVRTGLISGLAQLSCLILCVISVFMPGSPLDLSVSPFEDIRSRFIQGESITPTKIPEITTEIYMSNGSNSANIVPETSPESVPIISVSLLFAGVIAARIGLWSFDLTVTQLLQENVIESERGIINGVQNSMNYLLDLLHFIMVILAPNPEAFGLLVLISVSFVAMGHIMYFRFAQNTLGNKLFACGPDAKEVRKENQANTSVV
# T2: human ferroportin (SLC40A1) fused with GFP, stably expressed in HEK293 cells (human, UniProt Q9NP59 1-571)
# T2 sequence (looked up): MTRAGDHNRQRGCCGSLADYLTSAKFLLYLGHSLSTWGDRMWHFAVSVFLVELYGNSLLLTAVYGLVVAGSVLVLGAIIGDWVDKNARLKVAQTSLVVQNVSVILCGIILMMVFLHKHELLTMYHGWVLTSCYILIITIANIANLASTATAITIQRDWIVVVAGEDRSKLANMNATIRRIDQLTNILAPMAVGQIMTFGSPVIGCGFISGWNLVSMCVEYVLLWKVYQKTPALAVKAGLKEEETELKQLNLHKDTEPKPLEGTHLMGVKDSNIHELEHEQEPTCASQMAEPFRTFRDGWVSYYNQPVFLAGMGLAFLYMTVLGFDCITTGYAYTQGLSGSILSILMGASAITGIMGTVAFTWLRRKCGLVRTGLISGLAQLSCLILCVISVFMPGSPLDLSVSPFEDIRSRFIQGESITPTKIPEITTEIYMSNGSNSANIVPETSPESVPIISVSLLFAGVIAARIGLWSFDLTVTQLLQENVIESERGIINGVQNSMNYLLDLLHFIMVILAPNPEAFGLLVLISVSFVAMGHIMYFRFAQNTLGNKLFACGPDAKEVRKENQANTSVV
# Target: T1, human ferroportin (SLC40A1) fused in …
# Test: cell-based or functional assay
row,Binder,FPN IC50 [nM]
1,Isovaleryl-DTHFPCIK([γGlu-Palmitoyl])FEPRSKGC-NH2 (disulfide 6-16; SMILES CCCCCCCCCCCCCCCC(=O)N[C@@H](CCC(=O)NCCCC[C@@H]1NC(=O)[C@H]([C@@H](C)CC)NC(=O)[C@@H](NC(=O)[C@@H]2CCCN2C(=O)[C@H](Cc2ccccc2)NC(=O)[C@H](Cc2c[nH]cn2)NC(=O)[C@@H](NC(=O)[C@H](CC(=O)O)NC(=O)CC(C)C)[C@@H](C)O)CSSC[C@@H](C(N)=O)NC(=O)CNC(=O)[C@H](CCCCN)NC(=O)[C@H](CO)NC(=O)[C@H](CCCNC(=N)N)NC(=O)[C@@H]2CCCN2C(=O)[C@H](CCC(=O)O)NC(=O)[C@H](Cc2ccccc2)NC1=O)C(=O)O) [Compd ID 201],9
2,Isovaleryl-DTHFPCIK([γGlu-Palmitoyl])FEPRC-NH2 (disulfide 6-13; SMILES CCCCCCCCCCCCCCCC(=O)N[C@@H](CCC(=O)NCCCC[C@@H]1NC(=O)[C@H]([C@@H](C)CC)NC(=O)[C@@H](NC(=O)[C@@H]2CCCN2C(=O)[C@H](Cc2ccccc2)NC(=O)[C@H](Cc2c[nH]cn2)NC(=O)[C@@H](NC(=O)[C@H](CC(=O)O)NC(=O)CC(C)C)[C@@H](C)O)CSSC[C@@H](C(N)=O)NC(=O)[C@H](CCCNC(=N)N)NC(=O)[C@@H]2CCCN2C(=O)[C@H](CCC(=O)O)NC(=O)[C@H](Cc2ccccc2)NC1=O)C(=O)O) [Compd ID 204],14
3,Isovaleryl-DTHFPCIK([γGlu-Palmitoyl])FEPRSKC-NH2 (disulfide 6-15; SMILES CCCCCCCCCCCCCCCC(=O)N[C@@H](CCC(=O)NCCCC[C@@H]1NC(=O)[C@H]([C@@H](C)CC)NC(=O)[C@@H](NC(=O)[C@@H]2CCCN2C(=O)[C@H](Cc2ccccc2)NC(=O)[C@H](Cc2c[nH]cn2)NC(=O)[C@@H](NC(=O)[C@H](CC(=O)O)NC(=O)CC(C)C)[C@@H](C)O)CSSC[C@@H](C(N)=O)NC(=O)[C@H](CCCCN)NC(=O)[C@H](CO)NC(=O)[C@H](CCCNC(=N)N)NC(=O)[C@@H]2CCCN2C(=O)[C@H](CCC(=O)O)NC(=O)[C@H](Cc2ccccc2)NC1=O)C(=O)O) [Compd ID 202],11
4,Isovaleryl-DTHFPCIK([γGlu-Palmitoyl])FEPRSC-NH2 (disulfide 6-14; SMILES CCCCCCCCCCCCCCCC(=O)N[C@@H](CCC(=O)NCCCC[C@@H]1NC(=O)[C@H]([C@@H](C)CC)NC(=O)[C@@H](NC(=O)[C@@H]2CCCN2C(=O)[C@H](Cc2ccccc2)NC(=O)[C@H](Cc2c[nH]cn2)NC(=O)[C@@H](NC(=O)[C@H](CC(=O)O)NC(=O)CC(C)C)[C@@H](C)O)CSSC[C@@H](C(N)=O)NC(=O)[C@H](CO)NC(=O)[C@H](CCCNC(=N)N)NC(=O)[C@@H]2CCCN2C(=O)[C@H](CCC(=O)O)NC(=O)[C@H](Cc2ccccc2)NC1=O)C(=O)O) [Compd ID 203],15
5,Isovaleryl-DTHFPCIK([γGlu-Palmitoyl])FEPC-NH2 (disulfide 6-12; SMILES CCCCCCCCCCCCCCCC(=O)N[C@@H](CCC(=O)NCCCC[C@@H]1NC(=O)[C@H]([C@@H](C)CC)NC(=O)[C@@H](NC(=O)[C@@H]2CCCN2C(=O)[C@H](Cc2ccccc2)NC(=O)[C@H](Cc2c[nH]cn2)NC(=O)[C@@H](NC(=O)[C@H](CC(=O)O)NC(=O)CC(C)C)[C@@H](C)O)CSSC[C@@H](C(N)=O)NC(=O)[C@@H]2CCCN2C(=O)[C@H](CCC(=O)O)NC(=O)[C@H](Cc2ccccc2)NC1=O)C(=O)O) [Compd ID 205],64

# Target: T2, human ferroportin (SLC40A1) fused with …
# Test: cell-based or functional assay
row,Binder,FPN IC50 [nM]
1,Isovaleryl-DTHFPCI[dK]FK([PEG12-Palmitoyl])CK-NH2 (disulfide 6-11 (inferred)) [Compd ID 144],32
2,Isovaleryl-DIH[Dip]PCI[dK]FK([PEG12-Palmitoyl])[dK]C-NH2 (disulfide 6-12 (inferred)) [Compd ID 130],169
3,DTHFPXIKFKKC (Isovaleric acid-DTHFP-[a-MeCys]-I-[(D)Lys]-F-[Lys(Peg11-Palm)]-K-C-NH2) [Compd ID 116],11
4,"Isovaleryl-DTH[Dip][Npc]CI[dK][Phe(3,4-F2)]K([PEG12-Palmitoyl])KC-NH2 (disulfide 6-12 (inferred)) [Compd ID 127]",3
5,DTHXPCIKFKKX (Isovaleric acid-DTH-[Dpa]-PCI-[(D)Lys]-F-[Lys(Peg11-Palm)]-K-[N-Me-Cys]-NH2) [Compd ID 133],13.5
6,DTHXPCIKXKKC (Isovaleric acid-DTH-[Dpa]-PCI-[(D)Lys]-[Dpa]-[Lys(Peg11-Palm)]-[(D)Lys]-C-NH2) [Compd ID 131],14
7,DTHXPCIKFKKX (Isovaleric acid-DTH-[Dpa]-PCI-[(D)Lys]-F-[Lys(Peg11-Palm)]-[(D)Lys]-Pen-NH2) [Compd ID 132],4
8,DTHXPCIKFKXC (Isovaleric acid-DTH-[Dpa]-PCI-[(D)Lys]-F-[Lys(Peg11-Palm)]-[b-hLys]-C-NH2) [Compd ID 138],20.5
9,DTHFPCIKFKC (Isovaleric acid-DTHFPCIKF-Lys[PEG11-Palm]-C-NH2) [Compd ID 8],6
10,DTHXPCIKFKKC (Isovaleric acid-DTH-[Phe(4-COOH)-PCI-[(D)Lys]-F-[Lys(Peg11-Palm)]-[(D)Lys]-C-NH2) [Compd ID 120],> 1000
11,DTHXPCIKFKKC (Isovaleric acid-DTH-[Dpa]-PCI-[(D)Lys]-F-[Lys(Peg11-Palm)]-[(D)Lys]-C-NH2) [Compd ID 139],19.5
12,Isovaleryl-DTH[Dip][Npc]CI[dK]FK([PEG12-Palmitoyl])[dK]C-NH2 (disulfide 6-12 (inferred)) [Compd ID 117],2
13,Isovaleryl-DTH[Dip][Npc]CI[dK][AEF]K([PEG12-Palmitoyl])KC-NH2 (disulfide 6-12 (inferred)) [Compd ID 111],> 3000
14,DTHXPCIKFKXX (Isovaleric acid-DTH-[Dpa]-PCI-[(D)Lys]-F-[Lys(Peg11-Palm)]-[Dap]-[Hcy]-NH2) [Compd ID 143],18
15,DTHXPCIKXKKC (Isovaleric acid-DTH-[Dpa]-PCI-[(D)Lys]-[b-hPhe]-[Lys(Peg11-Palm)]-[(D)Lys]-C-NH2) [Compd ID 122],5
16,DTHXPCIKFKKC (Isovaleric acid-DTH-[a-MePhe]-PCI-[(D)Lys]-F-[Lys(Peg11-Palm)]-[(D)Lys]-C-NH2) [Compd ID 128],204
17,Isovaleryl-DTH[Dip][Npc]CI[dK][2Nal]K([PEG12-Palmitoyl])KC-NH2 (disulfide 6-12 (inferred)) [Compd ID 112],4
18,DTHFPCIKFKKX (Isovaleric acid-DTH-F-PCI-[(D)Lys]-F-[Lys(Peg11-Palm)]-K-[a-MeCysl-NH2) [Compd ID 114],3
19,DTHXPXIKFKXC (Isovaleric acid-DTH-[Dpa]-P-[Hcy]-I-[(D)Lys]-F-[Lys(Peg11-Palm)]-[Dap]-C-NH2) [Compd ID 141],26.5
20,DTHXPCIKFKC (Isovaleric acid-DTH-[Dpa]-PCI-[(D)Lys]-F-[Lys(Peg11-Palm)]-C-NH2) [Compd ID 135],22
21,DTHFPCIKFKPCK (Isovaleric acid-DTHFPCIKF-Lys[PEG11-Palm]-PCK-NH2) [Compd ID 9],15
22,DTHXPCIKFKXX (Isovaleric acid-DTH-[Dpa]-PCI-[(D)Lys]-F-[Lys(Peg11-Palm)]-[Dap]-[Pen]-NH2) [Compd ID 140],51
23,DTHXPXIKFKXX (Isovaleric acid-DTH-[Dpa]-P-[Hcy]-I-[(D)Lys]-F-[Lys(Peg11-Palm)]-[Dap]-[Hcy]-NH2) [Compd ID 142],12
24,DTHXPCIKFKKC (Isovaleric acid-DTH-[b-hPhe]-PCI-[(D)Lys]-F-[Lys(Peg11-Palm)]-[(D)Lys]-C-NH2) [Compd ID 121],9
25,Isovaleryl-DTH[Dip]PCI[βAla][β3hF]K([PEG12-Palmitoyl])[dK]C-NH2 (disulfide 6-12 (inferred)) [Compd ID 145],18
26,Isovaleryl-DTHF[Npc]CI[dK]FK([PEG12-Palmitoyl])[dK]C-NH2 (disulfide 6-12 (inferred)) [Compd ID 118],6
27,DTHFPXIKFKKX (Isovaleric acid-DTHFP-[a-MeCys]-I-[(D)Lys]-F-[Lys(Peg11-Palm)]-K-[a-MeCys]-NH2) [Compd ID 115],4
28,DTHXPCIKFKXC (Isovaleric acid-DTH-[Dpa]-PCI-[(D)Lys]-F-[Lys(Peg11-Palm)]-[Dab]-C-NH2) [Compd ID 137],23
29,DTHXPCIKFKXC (Isovaleric acid-DTH-[Dpa]-PCI-[(D)Lys]-F-[Lys(Peg11-Palm)]-[Orn]-C-NH2) [Compd ID 136],27
30,DTHXPCIKFKKX (Isovaleric acid-DTH-[Dpa]-PCI-[(D)Lys]-F-[Lys(Peg11-Palm)]-[(D)Lys]-[N-Me-Cys]-NH2) [Compd ID 134],22.5
